According to article PMC3756998, “Use of a Small Peptide Fragment as an Inhibitor of Insulin Fibrillation Process: A Study by High and Low Resolution Spectroscopy” (PLoS ONE, 2013):
“And” between values parts separate entries of the source, which are not always exact repeats. Identical values can stand only once. “Also recorded” adds a separate entry of the source. Like-named read-outs stand apart in the source and are kept apart here. Ends that are not written are not given here.

Key:
insulin [1] = conditions: literature, cited from earlier work
Source text: These agents routed via natural source or synthetic pathways are generally termed as amyloid inhibitors. The idea behind such anti-amyloid agent is to inhibit the creation of amyloidogenic aggregate and/to arrest the amyloid construction.

insulin [2] = molecular target: T1, insulin (Bos taurus, UniProt P01317); assay type: biochemical, bovine
T1 construct: Insulin consists of two polypeptide chains (Chain A –21 residues; Chain B –30 residues) held together by two disulphide bonds; purchased Sigma (St. Louis, MO)
T1 sequence (P01317 25-54 limits assumed): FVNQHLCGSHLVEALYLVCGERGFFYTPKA
T1 sequence (P01317 85-105 limits assumed): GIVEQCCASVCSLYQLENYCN

insulin [3] = molecular target: T1, insulin; assay type: biochemical, bovine; conditions: pH 2.6
insulin fibrils = assay type: biochemical, bovine; conditions: pH 2.6
insulin [4] = molecular target: T1, insulin; assay type: biochemical, bovine; conditions: pH 2.6; remark: listed apart in the source
insulin [5] = molecular target: T1, insulin; assay type: biochemical, bovine; conditions: pH 2.6; remark: listed apart in the source
human red blood cells = conditions: red cells of human, 1 h, 250 µM
insulin [6] = molecular target: T1, insulin; test: biochemical; assay type: binding, bovine; conditions: apparent Kd

Compound: O=c1c(O)c(-c2ccc(O)c(O)c2)oc2cc(O)cc(O)c12 [quercetin]
- effect on insulin fibrillation (in words) (insulin [1]; ref [45]–[46]): interfered with the dissociation of the oligomeric insulin to monomer and also destabilized preformed insulin fibril

Compound: OCC(F)(F)F [trifluoroethanol]
- effect on insulin fibrillation (in words) (insulin [1]; ref [23]): on binding with insulin trimer prevented the appearance of soluble oligomers; also recorded: could delay the fibrillation of insulin by interfering with the oligomer to monomer dissociation step

Compound: Insulin: 51-residue protein hormone; bovine insulin, two chains held together by two disulphide bonds
- cross beta structure formation / helix loss of insulin (FT-IR, in words) (insulin [2]): forms the cross beta structure indicative of fibrils beyond 2 h; also recorded: significant increases in the A1628/A1654 ratio was observed after 2 h of incubation
- β-sheet content of mature fibrils (FT-IR) (insulin [2]): ~60%
- helix content of insulin (CD) (insulin [3]): 39%
- fibril morphology by TEM (insulin fibrils): branched insulin fibrils
- Apparent Rate Constant (insulin [4]): 2.9 ± 0.13 h⁻¹
- Lag Time (insulin [4]): 120 min and 120 ± 5 min
- hydrodynamic radius (insulin [5]): 2.0 nm
- size of insulin monomer formed (insulin [5]): 1.3 nm
- size of large oligomer (insulin [5]): 24 nm

Compound: NIVNVSLVK [NK9, NIVNVSLVK]
- hemolysis (human red blood cells): less than 0.5%
- cytotoxicity (HT1080 cells): less than 5%
- Kd (insulin [6]): 2200 nM and 1200 nM

Compound: Triton X 100 [reference compound]
- viability (HT1080 cells): 20%
